Molecular target: GST-RhHB1 (Rosa hybrida, UniProt A0A096YDU1 1-243)
Test: EMSA; 25 pM probe (so in the source), 3 ug protein; signal weakened by 10x and 100x unlabeled probe; Pierce EMSA kit, per manufacturer's instructions; buffer, salt, pH and temperature not given
Settings: protein: recombinant; tags: GST (N-terminal, pGEX-2T); chain copies: 2; label: biotin (5' of S3); blunt

GST-RhHB1, sequence (A0A096YDU1 entry or part of it): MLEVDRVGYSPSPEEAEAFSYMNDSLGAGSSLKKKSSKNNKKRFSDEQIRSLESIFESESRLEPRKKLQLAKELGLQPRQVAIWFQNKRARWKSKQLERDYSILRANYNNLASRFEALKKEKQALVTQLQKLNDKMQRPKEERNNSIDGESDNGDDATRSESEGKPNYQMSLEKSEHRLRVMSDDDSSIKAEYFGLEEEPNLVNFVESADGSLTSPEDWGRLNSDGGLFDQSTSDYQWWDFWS

B1: RhLOX4 promoter probe (-1270 to -1303) (dsDNA)
DNA 1: AAGAGAATATTTTGAAATAATATTAGGAGTCTCT
DNA 2: AGAGACTCCTAATATTATTTCAAAATATTCTCTT
binding result: binds
